Some targets named below: HLA-A*31:01; HLA-A*11:01; HLA-A*03:01; HLA-A*33:01; HLA-A*68:01.
Assay in all cases: IEDB peptide-MHC binding, purified MHC/competitive/radioactivity; filed as Kd, often an IC50 or EC50 that approximates it; ≥ and ≤ were set here for values at or beyond the usual limits of such assays
Setting [1] is: source organism: Vaccinia virus WR.
Where [2] appears, read: source organism: SARS coronavirus Tor2.
Where [3] appears, read: source organism: Vaccinia virus Copenhagen.

In the case of LIWAYLSKK, the Kd (usually the constant that tells how readily two partners part at equilibrium) in the test with HLA-A*31:01 (setting [1]) was 931 nM; with HLA-A*11:01 (setting [1]), 101 nM; with HLA-A*03:01 (setting [1]), 21.4 nM; with HLA-A*33:01 (setting [1]), 4940 nM; with HLA-A*68:01 (setting [1]), 214 nM.
Turning to AIMQVFFGY, the Kd in the test with HLA-A*31:01 (setting [2]) amounted to 452 nM; with HLA-A*11:01 (setting [2]), 1.39 nM; in the test with HLA-A*03:01 (setting [2]), 0.695 nM; with HLA-A*33:01 (setting [2]), 1400 nM; in the test with HLA-A*68:01 (setting [2]) it was 191 nM.
On to KQMYRKFSR, for which the Kd was found to be 4.97 nM with HLA-A*31:01 (setting [3]); 78.8 nM with HLA-A*11:01 (setting [3]); 209 nM in the test with HLA-A*03:01 (setting [3]); 2130 nM with HLA-A*33:01 (setting [3]); 1210 nM with HLA-A*68:01 (setting [3]).
Consider NVQFVDINR, for which the Kd was 38.1 nM with HLA-A*31:01 (setting [1]); 193 nM with HLA-A*11:01 (setting [1]); not below 23000 nM with HLA-A*03:01 (setting [1]); 12.7 nM in the test with HLA-A*33:01 (setting [1]); 0.399 nM in the test with HLA-A*68:01 (setting [1]).
For the sequence SFNHVLKRK, the Kd with HLA-A*31:01 (setting [2]) is 375 nM; with HLA-A*11:01 (setting [2]), 1790 nM; with HLA-A*03:01 (setting [2]) it was 111 nM; with HLA-A*33:01 (setting [2]), 6790 nM; with HLA-A*68:01 (setting [2]), not below 24700 nM.
Regarding SINKVYGRY, the Kd in the test with HLA-A*31:01 (setting [1]) is 140 nM; with HLA-A*11:01 (setting [1]) it was 195 nM; in the test with HLA-A*03:01 (setting [1]), 526 nM; with HLA-A*33:01 (setting [1]) it was not below 77700 nM; in the test with HLA-A*68:01 (setting [1]), 1990 nM.
The matching figures for FIFSALDEK: not below 49200 nM, 65.1 nM, 156 nM, not below 66800 nM and 24.5 nM.
As to NAKVGDDVK, the Kd with HLA-A*31:01 (setting [1]) was 10100 nM; in the test with HLA-A*11:01 (setting [1]) it was 389 nM; with HLA-A*03:01 (setting [1]) it was not below 78000 nM; with HLA-A*33:01 (setting [1]) it was 16900 nM; in the test with HLA-A*68:01 (setting [1]), 478 nM.
The matching figures for NVPERQLILR: 87.8 nM, 323 nM, 18700 nM, 2.86 nM and 0.0657 nM.
The matching figures for IMSMMNITR: 517 nM, 61.2 nM, 870 nM, 4.04 nM and 29.9 nM.
In the case of MFMLIFNVK, the Kd turned out to be 125 nM with HLA-A*31:01 (setting [1]); 587 nM with HLA-A*11:01 (setting [1]); 1650 nM with HLA-A*03:01 (setting [1]); 4020 nM with HLA-A*33:01 (setting [1]); 1340 nM with HLA-A*68:01 (setting [1]).
Consider RLLACLCKHK, for which the Kd in the test with HLA-A*31:01 (setting [2]) is 25.2 nM; in the test with HLA-A*11:01 (setting [2]), 7.15 nM; with HLA-A*03:01 (setting [2]), 0.221 nM; in the test with HLA-A*33:01 (setting [2]), 4450 nM; with HLA-A*68:01 (setting [2]) it was 8480 nM.
As to EIINFTISMR, the Kd worked out at 428 nM in the test with HLA-A*31:01 (setting [1]); 2020 nM in the test with HLA-A*11:01 (setting [1]); 1610 nM in the test with HLA-A*03:01 (setting [1]); 7.83 nM in the test with HLA-A*33:01 (setting [1]); 1.12 nM with HLA-A*68:01 (setting [1]).
Turning to IINNAVYTK, the Kd turned out to be 114 nM in the test with HLA-A*31:01 (setting [2]); 17.1 nM in the test with HLA-A*11:01 (setting [2]); 37.5 nM with HLA-A*03:01 (setting [2]); 19500 nM with HLA-A*33:01 (setting [2]); 484 nM in the test with HLA-A*68:01 (setting [2]).
Take DTDIFSPENK: the dissociation constant Kd in the test with HLA-A*31:01 (setting [1]) is not below 22500 nM; with HLA-A*11:01 (setting [1]), 1680 nM; with HLA-A*03:01 (setting [1]), 5880 nM; with HLA-A*33:01 (setting [1]), 16800 nM; in the test with HLA-A*68:01 (setting [1]) it was 42.2 nM.
As to LTAVCMKCFK, the Kd in the test with HLA-A*31:01 (setting [1]) turned out to be 38.8 nM; with HLA-A*11:01 (setting [1]), 7.88 nM; in the test with HLA-A*03:01 (setting [1]) it was 29.8 nM; with HLA-A*33:01 (setting [1]) it was 2050 nM; with HLA-A*68:01 (setting [1]), 3.9 nM.
For YLGSANMDWR the same measures were 1350 nM, 921 nM, 850 nM, 3690 nM and 1070 nM.
IAHINTLIQY: the Kd with HLA-A*31:01 (setting [1]) turned out to be 8780 nM; with HLA-A*11:01 (setting [1]) it was 975 nM; with HLA-A*03:01 (setting [1]), 383 nM; with HLA-A*33:01 (setting [1]), 6860 nM; with HLA-A*68:01 (setting [1]), 1510 nM.
TLNHVLALKY: the Kd with HLA-A*31:01 (setting [1]) is not below 69100 nM; with HLA-A*11:01 (setting [1]) it was 1150 nM; with HLA-A*03:01 (setting [1]), 168 nM; with HLA-A*33:01 (setting [1]), not below 52700 nM; with HLA-A*68:01 (setting [1]) it was 13200 nM.
For YVEKEENMDK the same measures were 1270 nM, 2170 nM, not below 70100 nM, not below 69100 nM and 3370 nM.
As for TTYMDTFFR, the Kd with HLA-A*31:01 (setting [1]) stood at 16.6 nM; with HLA-A*11:01 (setting [1]), 1.98 nM; with HLA-A*03:01 (setting [1]), 10.4 nM; in the test with HLA-A*33:01 (setting [1]) it was 10.6 nM; in the test with HLA-A*68:01 (setting [1]), 0.0507 nM.
For MVASDVCKK the same measures were 1680 nM, 153 nM, 266 nM, 6980 nM and 65.8 nM.
Regarding IMEIVSHLR, the Kd with HLA-A*31:01 (setting [1]) was determined as 11.9 nM; with HLA-A*11:01 (setting [1]), 219 nM; in the test with HLA-A*03:01 (setting [1]) it was 1960 nM; with HLA-A*33:01 (setting [1]), 53.3 nM; with HLA-A*68:01 (setting [1]), 3.25 nM.
